# In US8986655B2, “Compositions, devices, and methods related to prostate-specific membrane antigen” (The Regents of the University of California, priority 2009, dated 2015):
# How the values were obtained:
# PSMA monomer = PSMA monomer (Homo sapiens, UniProt Q04609); experiment: Phage-displayed ELISA, binding to PSMA monomer; details: phage-displayed peptide, 1 μg/mL PSMA monomer, ELISA (FIG. 5)
# Text: (§1) An eight residue long peptide with the amino acid sequence […] [SEQ ID NO: 1], was previously identified as a PSMA binder from an 8-mer (X8) library. […] (also referred to as peptide 1 in the Figures) to PSMA as reported previously. In addition to […] [SEQ ID NO: 1], the inventors also examined a longer 13-mer peptide, selected from a disulfide-constrained library with the amino acid sequence […] [SEQ ID NO: 3] (also referred to as peptide 2 in the Figures).
# PSMA = PSMA (Homo sapiens, UniProt Q04609); details: phage-displayed ELISAs, QCM, EIS; as reported previously; cited from earlier work
# Chain of PSMA (Q04609 whole entry): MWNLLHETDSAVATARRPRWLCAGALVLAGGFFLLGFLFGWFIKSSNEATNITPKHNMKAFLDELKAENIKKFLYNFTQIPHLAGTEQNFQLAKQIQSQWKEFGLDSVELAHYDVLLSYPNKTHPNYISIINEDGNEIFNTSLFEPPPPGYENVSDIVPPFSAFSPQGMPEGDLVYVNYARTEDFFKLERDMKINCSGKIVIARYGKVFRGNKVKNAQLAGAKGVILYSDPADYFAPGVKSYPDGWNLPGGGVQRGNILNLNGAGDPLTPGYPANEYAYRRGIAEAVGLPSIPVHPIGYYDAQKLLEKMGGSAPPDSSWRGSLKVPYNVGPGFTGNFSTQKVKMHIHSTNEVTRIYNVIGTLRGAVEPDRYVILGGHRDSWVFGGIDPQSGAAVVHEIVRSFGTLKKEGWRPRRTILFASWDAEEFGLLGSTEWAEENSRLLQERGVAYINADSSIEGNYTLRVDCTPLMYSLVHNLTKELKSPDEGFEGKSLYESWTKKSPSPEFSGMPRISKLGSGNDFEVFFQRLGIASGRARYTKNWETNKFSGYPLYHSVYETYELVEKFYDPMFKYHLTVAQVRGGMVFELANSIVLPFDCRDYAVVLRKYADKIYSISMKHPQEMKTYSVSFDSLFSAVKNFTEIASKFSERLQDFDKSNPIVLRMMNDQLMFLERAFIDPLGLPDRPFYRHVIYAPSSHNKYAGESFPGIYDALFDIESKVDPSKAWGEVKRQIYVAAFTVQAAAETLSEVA
# homodimeric PSMA = homodimeric PSMA (Homo sapiens, UniProt Q04609); experiment: Phage-based ELISA, binding to PSMA dimer; details: for binding to PSMA dimer: phage-displayed peptide, 1 μg/mL PSMA dimer, ELISA (FIG. 5); for relative binding affinity to PSMA compared with parent peptide 2: 1 μg/mL homodimeric PSMA, half of the binding time (FIG. 1A)
# Chain of homodimeric PSMA (Q04609 whole entry): as above
# Text: as §1
# The five peptides [SEQ ID NOs: 4-8] […] These peptides were assayed for binding to 1 μg/mL of homodimeric PSMA, a concentration 10-fold less than the parent peptide required for binding assays. This higher stringency can better distinguish very high from moderate affinity binders. […] FIG. 1A illustrated peptides selected from homolog shotgun scanning library. FIG. 1B illustrates relative affinity of selected peptide 3 [SEQ ID NO: 4] versus the previous highest affinity peptide 1 [SEQ ID NO: 2]. FIG. 1C illustrates a bar graph showing that 20 nM phage displaying peptide 1 [SEQ ID NO: 2] has binding affinity similar to that of 0.2 nM phage displaying peptide 3 [SEQ ID NO: 4], and 20 nM phage displaying parent peptide 2 [SEQ ID NO: 3] has binding affinity similar to 0.02 nM phage displaying peptide 3 [SEQ ID NO: 4].
# A phage-based ELISA was performed using purified peptide 10 to determine whether the peptide enhances the binding to immobilized PSMA. […] Here, the graph illustrates results for the phage displaying peptide 3 [SEQ ID NO.4], wrapped with peptide 10 binding 1 μg/mL PSMA dimer
# [1] = target: transferrin receptor (TfR) (Homo sapiens, UniProt P02786); experiment: Cross-reactivity for binding transferrin receptor; details: homolog of PSMA (54% sequence identical)
# Chain of transferrin receptor (TfR) (P02786 whole entry, species assumed): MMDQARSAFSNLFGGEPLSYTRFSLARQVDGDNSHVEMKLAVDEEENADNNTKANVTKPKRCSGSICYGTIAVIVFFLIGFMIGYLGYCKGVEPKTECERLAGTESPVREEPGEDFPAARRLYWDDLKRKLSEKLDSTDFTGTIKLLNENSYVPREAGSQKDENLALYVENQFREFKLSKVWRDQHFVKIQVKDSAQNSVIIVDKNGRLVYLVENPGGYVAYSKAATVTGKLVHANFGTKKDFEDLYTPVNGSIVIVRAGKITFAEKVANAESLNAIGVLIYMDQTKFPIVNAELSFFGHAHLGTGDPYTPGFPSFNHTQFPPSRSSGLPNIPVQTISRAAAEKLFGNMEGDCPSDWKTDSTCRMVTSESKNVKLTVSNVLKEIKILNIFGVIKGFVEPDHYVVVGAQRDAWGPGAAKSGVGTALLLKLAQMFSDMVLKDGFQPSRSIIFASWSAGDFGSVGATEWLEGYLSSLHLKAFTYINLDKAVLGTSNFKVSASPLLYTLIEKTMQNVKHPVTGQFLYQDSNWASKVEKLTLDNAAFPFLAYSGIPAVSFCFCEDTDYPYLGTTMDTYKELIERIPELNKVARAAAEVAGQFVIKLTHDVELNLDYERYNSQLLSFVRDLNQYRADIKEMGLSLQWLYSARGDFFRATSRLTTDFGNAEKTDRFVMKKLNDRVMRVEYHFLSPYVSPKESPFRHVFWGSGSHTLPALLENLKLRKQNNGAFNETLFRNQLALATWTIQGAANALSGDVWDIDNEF
# Text: It should be noted that the two substitutions incorporated in the sequence of peptide 3 [SEQ ID NO: 4] were L1S and D2E. The serine substitution removes a hydrophobic leucine residue, which provides the peptide with a more polar side chain, which can accept and donate hydrogen bonds (H-bonds). The hydroxyl group likely improves the surface complementarity at the binding interface with PSMA by creating new H-bonding contacts with the protein backbone, or by participating in an extended H-bonding network directly or indirectly through water to other side chains at the binding site. The selection of Glu in place of Asp merely extends the side chain length by one carbon unit. This substitution maintains contribution of the carboxylate functionality, and the length extension of 1.5 Å could allow for new H-bonding or salt-bridging opportunities. Clearly, the core sequence of the selected peptides is critical for the molecular recognition of PSMA, and this core remained conserved in the tightest binding peptides.
# [2] = phage-based ELISA with 20 nM phage, phage concentration versus HRP activity (FIGS. 1B, 1C)
# Chain of PSMA monomer (Q04609 whole entry): as the sequence (Q04609 whole entry) above
sequence,measurement,setting,value
"CALCEFLG (Synthetic oligopeptiide) [peptide 1, reference compound]",binding to PSMA monomer,PSMA monomer,efficient binding
same,binding to PSMA,PSMA,strong binding
same,apparent affinity for dimeric PSMA relative to the monomeric isoform,"homodimeric PSMA; phage-displayed ELISA, dimer versus monomer",exceeds affinity for the monomeric isoform
same,binding to PSMA dimer,homodimeric PSMA,efficient binding
same,binding to PSMA dimer,homodimeric PSMA; listed as Peptide 1,higher affinity to PSMA dimer than peptide 2
"SECVEVFQNSCDW [peptide 3, peptide from the homolog shotgun scanning library]",relative binding affinity to PSMA compared with parent peptide 2,homodimeric PSMA,higher affinity towards the target
same,phage concentration with binding affinity similar to 20 nM phage displaying parent peptide 2,homodimeric PSMA; PSMA 1 μg/mL (FIG. 1C),0.02 nM
same,phage concentration with binding affinity similar to 20 nM phage displaying peptide 1,homodimeric PSMA; PSMA 1 μg/mL (FIG. 1C),0.2 nM
same,fold higher affinity for PSMA compared to parent peptide 2,homodimeric PSMA; [2],≈ 1000 times
same,fold higher affinity for PSMA than peptide 1,homodimeric PSMA; [2],≈ 100 times
same,cross-reactivity for binding transferrin receptor (TfR),[1],no detectable cross-reactivity
"SDCVEVFQNSCDW [compound 4, peptide from the homolog shotgun scanning library]",relative binding affinity to PSMA compared with parent peptide 2,homodimeric PSMA,higher affinity towards the target
"LDCVEVFQNSCDW [peptide 2, 13-mer peptide selected from a disulfide-constrained library; parent of the homolog library]",binding to PSMA monomer,PSMA monomer,fails to bind the monomer with significant affinity
same,binding to PSMA monomer,PSMA monomer; listed as Peptide 2,does not bind PSMA monomer with appreciable affinity
same,binding to PSMA dimer,homodimeric PSMA,only binds to dimeric PSMA
